In paper doi:10.1101/270843:
Like-named read-outs stand apart in the source and are kept apart here.

B1: HIV-1 LTR 90-mer (ssDNA)
DNA: AGCAGTGGCGCCCGAACAGGGACTTGAAAGCGAAAGTAAAGCCAGAGGAGATCTCTCGACGCAGGACTCGGCTTGCTGAAGCGCGCACGG
B2: Scrambled DNA 90-mer (ssDNA)
DNA: ACTAGCTCAAGCGGGGGACACCCAGGTGTCTCCAACAGTCCGTAGATCGGACGGAGAAGAGGGGACCCCGCTAATGAGCGTGAGCAGAGA

Legend:
Test in all cases: fluorescence anisotropy
SAMHD1 T592A [1] = target: T1, SAMHD1 T592A (UniProt Q9Y3Z3 1-626, T592A)
SAMHD1 WT [2] = target: T2, SAMHD1 WT (UniProt Q9Y3Z3 1-626)
SAMHD1 WT [3] = target: T2, SAMHD1 WT; remark: listed apart in the source
SAMHD1 T592A [4] = target: T1, SAMHD1 T592A; remark: listed apart in the source
SAMHD1 WT [5] = target: T2, SAMHD1 WT; remark: listed apart in the source

T2 sequence (Q9Y3Z3 whole entry): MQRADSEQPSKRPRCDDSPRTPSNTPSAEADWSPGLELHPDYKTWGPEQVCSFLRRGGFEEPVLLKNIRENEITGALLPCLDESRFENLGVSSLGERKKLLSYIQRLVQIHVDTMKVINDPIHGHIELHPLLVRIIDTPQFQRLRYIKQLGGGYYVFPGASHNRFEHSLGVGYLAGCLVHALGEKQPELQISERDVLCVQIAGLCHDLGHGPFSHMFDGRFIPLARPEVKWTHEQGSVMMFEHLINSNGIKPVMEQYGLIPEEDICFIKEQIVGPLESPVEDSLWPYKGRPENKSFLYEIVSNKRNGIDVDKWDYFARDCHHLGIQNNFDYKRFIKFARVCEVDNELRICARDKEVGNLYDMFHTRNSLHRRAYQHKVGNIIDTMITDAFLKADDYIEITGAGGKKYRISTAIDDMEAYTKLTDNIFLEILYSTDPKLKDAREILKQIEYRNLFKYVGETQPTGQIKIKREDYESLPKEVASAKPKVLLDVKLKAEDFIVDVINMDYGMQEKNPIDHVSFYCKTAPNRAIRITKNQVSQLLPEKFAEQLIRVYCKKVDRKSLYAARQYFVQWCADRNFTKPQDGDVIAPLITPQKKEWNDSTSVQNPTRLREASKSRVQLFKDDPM
T1 sequence (Q9Y3Z3 whole entry T592A): as the sequence (Q9Y3Z3 whole entry) above, with T592A counted along it

Row | Binder | binding result (SAMHD1 T592A [1]) | Kd (SAMHD1 WT [2]) | Kd (SAMHD1 WT [3]) | binding result (SAMHD1 T592A [4]) | binding result (SAMHD1 WT [5])
1 | B1 | no binding | 93 ± 8 nM | 242 ± 51 nM |  | 
2 | B2 |  |  |  | no binding | no binding
